Laboratory results: the nanobody polyreactivity screen of Harvey et al. (2022)

Assay: yeast display, Sf9 membrane polyspecificity reagent, FACS + sequencing; frameworks hold sequencing errors
Procedure, shortened: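 After 36–48 hours of galactose induction, yeast (Saccharomyces cerevisiae BJ5465) displaying a synthetic nanobody library were stained at 4 °C for 1 hour with 10% biotinylated, detergent-solubilized Sf9 membrane reagent. Streptavidin microbeads enriched the stained cells before FACS sorting into low and high (top ~1%) gates on anti-HA and streptavidin fluorescence. Each clone's polyreactivity label reflects its gate of origin.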

Sequence	polyreactivity (PSR sort gate)
QVQLVESGGGLVQAGGSLRLSCAAYGSILRTYAMGWYRQAPGKERELVAAISSSGGSTYYADSVKGRFTISRDNAKNTVYLQMNSLKPEDTAVYYCAARYRYYYTRYDYWGQGTQVTVSS	high polyreactivity
QVQLVESGGGLVQAGGSLRLSCAASGRIFYGYAMGWYRQAPGKERELVASISRRGSSTYYADSVKGRFTISRDNAKNTVYLQMNSLKPEDTAVYYCAAGYYPFNYWGQGTQLTVSS	high polyreactivity
HVQLVESGGGLVQAGGSLRLSCAASGRISIRNAMGWYRQAPGKERELGAAISRSGGSTYYADSVKGRFTISRDNAKNTVYIQMNSLKPEDTAVYYCAASFWSSGQWYDYWGQGTQVTVSS	high polyreactivity
QVQLVESGGGCVQAGGSLRLSCAASGFIFEQNAKGWYRQARGKEWELVARISWRGGSTYYADSEKGRFTISRDKAKITVYLQMNSLKPEDSAVYYCNAHEVDYFGYYPSDYWGQGTQVTVSS	low polyreactivity
QVQLVESGGGLVQAGGSLRLSCAASGFTFVKNAMGWYRQAPGNERELVAAISQSGGSTYYADSVKGRFTISRDNAKNTVYLQMNSLKPEDTAVYYCAATYYTYWGYRDYYWGQGTQVTVSS	high polyreactivity
QVQLVESGGGLVQAGGSLRLSCAASGFIFDDNAMGWNRQAHGKERELVAAITSGGGSTYYADSVKGRFTISRDNAKNTVYLQLNSLKPEDTAVYYCNAVPSQHDEFDYWGQGTQVSVSS	low polyreactivity
QVQLVESGGGLVQAGGSLRLSCAASGSIFTPYAMGWYRQAPGKERELVAAISRSGGSTYYADSVKGRFTISRDKAKNTVYLQMNRLKPADSAVYYCAADVQTLITLGQFDYWGQGTQVTVSS	low polyreactivity
QVQLVESGGGLVQAGGSLRLSCAASGRIFSLYTMGWYRQAPGKERELVATINRSSVSTRYADSVKGRFTISRDNAKNTGYLQMNSLKPEDTAVYYCAAQRSTRYPLYYWGQGTQVTVSS	high polyreactivity
QFQLVESGGGLVQAGGSLRLSCAASGSTFTQNTMGWYRQAPGKERELVAAISRRGGGTYYADSVKGRFTISRDNAKNTVYLQMNSLKPEDTAVYYCNAPYILTQQGGRRYDYWGQGTQVTVSS	high polyreactivity
QVQLVESGGGLVQAGGSLRLSCAASGSIFKYNAMGWYRQAPGKEREFVAAISRSGGSTYYADSVKGRFTISRDNAKNTVYLQMNSLKPEDTAVYYCATTSRYSWSDYWGQGTQVTVSS	high polyreactivity
QVQLVESGGGLVQAGGSLRLSCAASGFIFFTYAMGWYRQAPGKERELVAAISSRGGSTYYADSVKGRFTISRDNAKNTVYLQMNSLKPEDTAVYYCADRTRRRRGEYDYWGQGTQVTVSS	high polyreactivity
QVQLVESGGGLVQAGCSLRLSCAASGSTFKRYAMGWYRQAPGKERELVASISSGGSTNYADSVKGRFTISRDNAKNTVYLQMNSLKPEDTAVYYCATRGHYRQTINYWGQGTQVSVSS	high polyreactivity
QVQLVESGGGLVQAGGSLRLSCAASGNTVWYNAMGWFIQAPGKETELVAAISYSGGGTYYAVSVKGRFTISREKAKNTVYLQMNCLKPDDSAVYYCSADTLQRAFVLYDYWGQGTQVTVSS	low polyreactivity
QVQLVESGGGLVQAGGSLSLSCAASGFTFYENAMGWYRQAPGKERELVATISYSGGTTYYADSVKGRFTISRDNAKNTVYLQMNSLKPEDTAVYYCNADYFYYGFPDDYWGQGTQVTVSS	low polyreactivity
QVQLVESCGGLVQAGGSLRLSCAASGSIFVGNAMGWYRQAPGKERELVAAIDASGGNTYYADSVKGRFTISRDNAKNTVYLQMNSLKPEDTAVYYCNKYGYWWWGTRESDYWGQGTQVTVSS	high polyreactivity
QVQLVESGGGLVQAGGSLRLSCAASGFTFTDYAMGWYRQAPGKERELVAAITSGDSTYYADSVKGRFTISRDNAKNTVYLQMNSLKPEDTAVYYCNKLRRSPNSQYYYWGQGTQVTVSS	high polyreactivity
QVQLVESGGGLVQAGGSLRISCAASGRTFARNSMGWYRQAPGKERELVATITIGGRTYYADSVKGRFTISRDNAMNTVYLQMNSLKPEDTAVYYCAKRISGYRGDYWGQGTQVTVSS	high polyreactivity
QVQLVESGGGLVQAGGSLRLSCAASGSTFPPNAMGWYRQAPGKERELVAGINGSGGRTYYADSVKGRFTISRDNAKNTVYLQLNCMKPEDTAVYYCAAEGTTIWFDLTYDDWYEYYSWGQGTQVTVSS	high polyreactivity
QVQLVESGGGLVQAGGSLRLSCAASGSTFRGNAMGWYRQAPGKERELVAAITGRGGRTYYADSVKGRFTISRDNAKNTVYLQMNSLKPEDTAVYYCAAYSRYKPYGITAYDYWGQGTQVTVSS	high polyreactivity
QVQLVESGGGLVQAGGSLRLSCAASGYTFGSNAMGWYRQAPGKERELVAAISTNGGRTNYADSVKGRFTISRDYAKNSVYLQMYSLIPEDTAVYYCNTRLRVRYYLSGFDYWGQGTQVTVSS	high polyreactivity
QVQLVESGGGLVQAGGSLRLSCAASGSTFRYNTMGWDRQAPGKERELVAAISGGGGSTYYADSVKGRFTISRDNAKNTVYLQMNSLKPEDTAVYYCAKRHWYAGYVSSYTTRYDYWGQGTQVTVSS	low polyreactivity
QVQLVESGGGLVQAGGSLRLSCAASGSTFVRNAMGWYRQAPGKERELVAGISTGDKTYYADSVKGRFTISRDNAKNTVYLQMNSLKPEDTAVYYCAASVGTYQTATLDYDSWGQGTQVTVSS	low polyreactivity

Sequence	polyreactivity (PSR sort gate)
QVQLVESGGGLVQAGGSLRLSCAASGYTFESYTMGWYRQGPGKERDFVAVISSSDTSTSYADSVKGRFTISRDNAKNTVYLQINSLKAEDTAVYYCAAYSSPYYITYYWYNYDYWGQVTQVTVSS	low polyreactivity
QVQLVESGGGLVQAGGSLRLSCAASGITFSYYAMGWYRQAPGKERELVAAISRTGTSTYYADSVKGRFTISRDNAKNTVYLQMNSLKPEDTAVYYCAARYYYWGQGTQVTVSS	high polyreactivity
QVQLVESGGGLVQAGGSLRLSCAASGFTFYSYAMGWYRQAPGKEREFVAAISGSGTITFYADSVKGRFTISRDNAKNTVYLQMNSLKPEDTAVYYCNADKYYRWSSPRYDYWGQGTQVTVSS	low polyreactivity
QVQLVESGGGLVQAGGSLRLSCAASGRIFARNAMGWYRQAPGKERELVADITSTGSTNYADSVKGRFTISRDNAMITVYLQMNSLKPEDTAVYYCAADYYTGYVWEDYYWGQGTQVTVSS	low polyreactivity
QVQLVESGGGLVQAGGSLRLSCAASGRTFYDYTMGWYRQAPGKERELVAVISKRGGSTYYADSVKGRFTISRDNAKNTVYLQMNSLKPEDTAVYYCAAKSGRNVYQKVDYWGQGTQVTVSS	high polyreactivity
QVQLVESGGGLVQAGGSLRLSCAASGFTIGKNAMGWYRQAPGKERELVAAISLSGGRTYADSVKGRFTISRDNAKNTVYLQMNSLKPEDTAVYYCAANRYPKFYWGQGTQVTVSS	high polyreactivity
QVQLVESGGGLVQAGGSLRLSCAASGFTFRAYAMGWYRQAPGKERELVAAISSGGGRTYYADSVKGRFTISRDNAKNTVYLQMNSLKPEDTAVYYCAADNYPGTRYDYWGQGTQVTVSS	high polyreactivity
QVQRVESGGGLVQAGGSLRLSCGASGSTFWAYVMGWYRPAPGKERELVAAMSSGGTTNYADSVKGRFTISRDNAKNTVYLQMNSLKPEDTAVYYCAAGRPGELDYWGQGTQVTVSS	low polyreactivity
QVQLVESGVGLDQAGGSLRLSCAASGSTFWWNNMVCYRQAPGKERELVAAITTGGGTYYADSVKGRFTISRDNAKNSVYLQMNSLKPEDTAVYYCAATVRSYGWYAYHYSTYGYWGKGTQVTVSS	low polyreactivity
QVQLVESVGGLVQAGGSLRLSCAASGRIFVNAMGWYRPAPGKESEVVAAINTRGGSTYYADSVKGRFTISRDNAKNTVYLQLNSLKPEDTAVYYCAARFYTSSRYNYWGQGTQGTVSS	high polyreactivity
QVQLVESGGGLVQAGGSLRLSCAASGFISDGNYMGWYRQAPGKERELVAAISSGATTHYADSVKGRFTISRDNAKNTVYLQMNSLKPEDTAVYYCNRGDDWRYDYWGQGTQVTVSS	low polyreactivity
QVQLVESGGGLVQAGGSLRLSCAASGLTSTDNAMGWYRQAPGKERELVAGITTGGSTYYADSVKGRFTISRDNAKNTVYLQMNSLKPEDTAVYYCNAPTYADTTYDYWGQGTQVTVSS	low polyreactivity
QVQLVESGGGLVQAGGSLRLSCAASGNIIYQNAKGLYRQAPGKERELVAAITGRGSSTYYADSVKGRFTISRDNAKNTVYLQMNSMKPEDTAVYYCAADTTPYDGYYGHGYWGQGTQVTVSS	low polyreactivity
QVQLVESGGGLVQAGGSLRLSCAASVLTFSYYALGGSRPAHGTERELVAAITSSGGRTTYADSVKGRFTISRDNAKNTVYLQMNSLKPEDTAVYYCNVVRCTLKYGYWGQGTQVTVSS	high polyreactivity
QVQLVESVGGLVQAGGSLRLSCAASGSTFVDYAMGWYRQAPGKERELVAGINGSGGSTYYADSVKGRFTISRDNAKNTVYLQMNSLKPEDTAVYYCNARNPWRKRSQGYSWGQGTQVTVSS	low polyreactivity
QVQLVESGGGLVQAGGSLRLSCAASGSIFWFNAMGWYRQAPGKEREFVASISRSGGTTYYADSVKGRFTISRDTAKNTVYLQMYSLKPEDTAVYYCNARAYGNGLGTGYFGKHRYDYWGQGTQVTVSS	low polyreactivity
QVQLVESGGGLVQAGGSLRLSCAASGRIFDTNVMGWYRQAPGTDRDFVAAIRWNGGSTNYADSVKGRFTISRDNSKNTVYLQMNSLKPEDTAVYYCAADGYIGWRHIYEYWGQATQVTVSS	low polyreactivity
QVQLVESGGGLVQAGGSLRLSCAASGSTFGGYAMGWYRQAPAKERELVAAISTSGGNTYYADSVKGRFTISRDNAKNTVYLQMNRLKPEDTAVYYCARDRVSWGGQDSWGQGTQVSVSS	high polyreactivity
QVQLVESGGGLVQAGGSLRLSCAASGRTFVRNAMGWYRQAPGKERELVATIRSGGSTNYADSVKGRFTISRDNAKNTVYLQMNSLKPEDTAVYYCATQGSRARYDYYYWGQGTQVTVSS	high polyreactivity
QVQLVESGGGLVQAGGSLRLSCAASGITFDKYALGWYRQAPGNERELVAAISGSDGSTYYADSVKGRFTISRDNAKNTVYLQNNSLKPEDTAVYYCAAESEYAGTYEYDYWGQGTQVTVSS	low polyreactivity
QVQLVESGGGLVQAGGSLRLSCAASGNTFYGYAIGWYRQAPGKERELVASITLSGDSTYYADSVKGRFTISRDNAKNTVYLQMNSLKPEDTAVYYCAGVYTYPLGYYHYTYDYWGQGTQVTVSS	low polyreactivity
